{"source": "paper PMC5358978", "about": "“Nuclear export receptor CRM1 recognizes diverse conformations in nuclear export signals” (eLife, 2017)", "binders": {"B1": {"name": "Hxk2 peptide (crystallised, false positive NES) (peptide)", "peptide": "DVPKELMQQIENFEKIFTV", "notes": "Hexokinase-2 (Hxk2), residues 18-36; Extra N-terminal residues such as those printed for mDia2 (GGSY) and FMRP-1b (GGS) may be present; source: expressed and purified as described in Fung et al., 2015"}, "B2": {"name": "MBP-FMRP NES (peptide)", "chain": "YLKEVDQLRLERLQI", "notes": "fragile X mental retardation protein (FMRP), residues 423-437; also called MBP-NES; not shown: MBP, N-terminal, kept"}, "B3": {"name": "Paxillin NES peptide (crystallised) (peptide)", "peptide": "RELDELMASLSDFKFMAQ", "notes": "Paxillin, residues 264-281; Extra N-terminal residues such as those printed for mDia2 (GGSY) and FMRP-1b (GGS) may be present; also called Pax^NES; source: expressed and purified as described in Fung et al., 2015"}, "B4": {"name": "GST-CDC7 NES (peptide)", "chain": "QDLRKLCERLRGMDSSTP", "notes": "cell division cycle 7-related protein kinase (CDC7), residues 456-473; source: as described in Fung et al., 2015; not shown: GST, N-terminal, kept"}, "B5": {"name": "GST-DEAF1 peptide (false positive NES) (peptide)", "chain": "SWLYLEEMVNSLLNTAQQ", "notes": "Deformed Epidermal Autoregulatory Factor 1 homolog (DEAF1), residues 452-469; also called GST-NESs; source: as described in Fung et al., 2015; not shown: GST, N-terminal, kept"}, "B6": {"name": "GST-X11L2 NES (peptide)", "chain": "SSLQELVQQFEALPGDLV", "notes": "source: as described in Fung et al., 2015; not shown: GST, N-terminal, kept"}, "B7": {"name": "GST-Hxk2 peptide (false positive NES) (peptide)", "chain": "DVPKELMQQIENFEKIFTV", "notes": "Hexokinase-2 (Hxk2), residues 18-36; also called GST-NESs; source: as described in Fung et al., 2015; not shown: GST, N-terminal, kept"}, "B8": {"name": "CDC7 NES peptide (crystallised) (peptide)", "peptide": "QDLRKLCERLRGMDSSTP", "notes": "cell division cycle 7-related protein kinase (CDC7), residues 456-473; Extra N-terminal residues such as those printed for mDia2 (GGSY) and FMRP-1b (GGS) may be present; source: expressed and purified as described in Fung et al., 2015"}, "B9": {"name": "SMAD4 NES peptide (crystallised) (peptide)", "peptide": "YERVVSPGIDLSGLTLQ", "notes": "Mothers against decapentaplegic homolog 4 (SMAD4), residues 133-149; Extra N-terminal residues such as those printed for mDia2 (GGSY) and FMRP-1b (GGS) may be present; source: expressed and purified as described in Fung et al., 2015"}, "B10": {"name": "X11L2 NES peptide (crystallised) (peptide)", "peptide": "SSLQELVQQFEALPGDLV", "notes": "Extra N-terminal residues such as those printed for mDia2 (GGSY) and FMRP-1b (GGS) may be present; source: expressed and purified as described in Fung et al., 2015"}, "B11": {"name": "MBP-X11L2 NES (peptide)", "chain": "SSLQELVQQFEALPGDLV", "notes": "also called MBP-NES; not shown: MBP, N-terminal, kept"}, "B12": {"name": "DEAF1 peptide (crystallised, false positive NES) (peptide)", "peptide": "SWLYLEEMVNSLLNTAQQ", "notes": "Deformed Epidermal Autoregulatory Factor 1 homolog (DEAF1), residues 452-469; Extra N-terminal residues such as those printed for mDia2 (GGSY) and FMRP-1b (GGS) may be present; also called DEAF^pep; source: expressed and purified as described in Fung et al., 2015"}, "B13": {"name": "FMRP NES peptide (crystallised) (peptide)", "peptide": "YLKEVDQLRLERLQI", "notes": "fragile X mental retardation protein (FMRP), residues 423-437; Extra N-terminal residues such as those printed for mDia2 (GGSY) and FMRP-1b (GGS) may be present; source: expressed and purified as described in Fung et al., 2015"}, "B14": {"name": "MBP-mDia2 NES (wild type) (peptide)", "chain": "SVPEVEALLARLRAL", "notes": "mouse diaphanous homolog 3 (mDia2), residues 1179-1193; also called wild type mDia2^NES; not shown: MBP, N-terminal, kept"}, "B15": {"name": "mDia2 NES peptide (crystallised) (peptide)", "peptide": "GGSYSVPEVEALLARLRAL", "notes": "residues printed before the NES in the crystallised peptide; not of mDia2; mouse diaphanous homolog 3 (mDia2), residues 1179-1193; source: expressed and purified as described in Fung et al., 2015"}, "B16": {"name": "MBP-SMAD4 NES (peptide)", "chain": "YERVVSPGIDLSGLTLQ", "notes": "Mothers against decapentaplegic homolog 4 (SMAD4), residues 133-149; also called MBP-NES; not shown: MBP, N-terminal, kept"}, "B17": {"name": "HDAC5 NES peptide (crystallised) (peptide)", "peptide": "EAETVSAMALLSVG", "notes": "Histone deacetylase 5 (HDAC5), residues 1082-1095; Extra N-terminal residues such as those printed for mDia2 (GGSY) and FMRP-1b (GGS) may be present; also called HDAC^NES; source: expressed and purified as described in Fung et al., 2015"}, "B18": {"name": "MBP-HDAC5 NES (peptide)", "chain": "EAETVSAMALLSVG", "notes": "Histone deacetylase 5 (HDAC5), residues 1082-1095; also called HDAC^NES; MBP-NES; not shown: MBP, N-terminal, kept"}, "B19": {"name": "MBP-Paxillin NES (peptide)", "chain": "RELDELMASLSDFKFMAQ", "notes": "Paxillin, residues 264-281; also called Pax^NES; MBP-NES; not shown: MBP, N-terminal, kept"}, "B20": {"name": "MBP-CDC7 NES (peptide)", "chain": "QDLRKLCERLRGMDSSTP", "notes": "cell division cycle 7-related protein kinase (CDC7), residues 456-473; also called MBP-NES; not shown: MBP, N-terminal, kept"}}, "settings_in_all_cases": "both partners purified", "key": {"[1]": {"target": "engineered ScCRM1(K579A) mutant (S. cerevisiae, UniProt P30822 1-1058, △377–413 | 537DLTVK541 to GLCEQ | V441D | K579A)", "experiment": "crystal structure; NES peptide bound to the engineered ScCRM1-RanGppNHp-Yrb1p complex; crystallised as in Fung et al., 2015"}, "[2]": {"target": "T1, human CRM1 (HsCRM1), wild type (human, UniProt O14980 1-1071)", "T1 construct": "human CRM1 / Exportin-1 (XPO1); Always used together with RanGTP (ScRanGTP in the pull-downs); also called Exportin-1; XPO1", "experiment": "differential bleaching; competition titration of MBP-NES to FITC-PKI NES and CRM1 with excess RanGTP; triplicate; fitted with a set of direct titrations"}, "[3]": {"target": "engineered ScCRM1 (residues 1-1058, △377-413, 537DLTVK541 to GLCEQ, V441D) (S. cerevisiae, UniProt P30822 1-1058, △377–413 | 537DLTVK541 to GLCEQ | V441D)", "experiment": "crystal structure; NES peptide bound to the engineered ScCRM1-RanGppNHp-Yrb1p complex; crystallised as in Fung et al., 2015"}, "[4]": {"target": "T1, human CRM1 (HsCRM1), wild type", "experiment": "pull-down; ~10 µg immobilized GST-NES, 2.5 µM HsCRM1 and 7.5 µM ScRanGTP in 200 µL"}, "[5]": {"target": "T2, human CRM1 mutant HsCRM1(K568M) (human, UniProt O14980 1-1071, K568M)", "T2 construct": "human CRM1 / Exportin-1 (XPO1) with K568M; Used together with RanGTP", "T2 sequence (O14980 whole entry K568M)": "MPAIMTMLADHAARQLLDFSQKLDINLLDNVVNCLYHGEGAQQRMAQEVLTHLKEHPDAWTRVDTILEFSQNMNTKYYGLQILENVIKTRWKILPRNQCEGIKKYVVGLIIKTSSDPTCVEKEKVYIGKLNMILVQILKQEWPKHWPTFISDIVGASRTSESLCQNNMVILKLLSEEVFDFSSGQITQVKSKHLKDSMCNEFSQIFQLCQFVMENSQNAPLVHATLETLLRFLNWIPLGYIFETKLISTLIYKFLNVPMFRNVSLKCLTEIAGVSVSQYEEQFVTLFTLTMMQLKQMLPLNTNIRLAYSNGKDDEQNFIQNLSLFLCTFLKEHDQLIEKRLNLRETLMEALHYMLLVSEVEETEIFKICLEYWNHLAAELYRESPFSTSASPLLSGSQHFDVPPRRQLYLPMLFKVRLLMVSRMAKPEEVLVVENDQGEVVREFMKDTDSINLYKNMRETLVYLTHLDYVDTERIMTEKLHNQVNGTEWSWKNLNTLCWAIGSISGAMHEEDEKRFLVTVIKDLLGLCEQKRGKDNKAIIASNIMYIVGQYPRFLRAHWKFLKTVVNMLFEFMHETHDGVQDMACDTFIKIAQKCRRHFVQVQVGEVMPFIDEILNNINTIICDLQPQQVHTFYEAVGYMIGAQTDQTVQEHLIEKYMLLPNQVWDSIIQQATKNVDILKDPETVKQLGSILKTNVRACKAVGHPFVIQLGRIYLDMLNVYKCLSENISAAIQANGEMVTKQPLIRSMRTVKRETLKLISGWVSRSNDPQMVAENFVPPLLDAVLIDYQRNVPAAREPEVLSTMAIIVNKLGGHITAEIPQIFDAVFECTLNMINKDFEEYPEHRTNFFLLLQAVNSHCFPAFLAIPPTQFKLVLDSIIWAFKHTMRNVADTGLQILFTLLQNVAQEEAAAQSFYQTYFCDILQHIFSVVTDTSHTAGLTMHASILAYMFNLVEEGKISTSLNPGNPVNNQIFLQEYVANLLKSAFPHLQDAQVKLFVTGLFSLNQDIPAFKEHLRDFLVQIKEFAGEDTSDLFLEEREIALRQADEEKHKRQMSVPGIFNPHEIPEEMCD", "experiment": "pull-down; ~5 µg immobilized GST-NESs, 7.5 µM ScRanGTP and 2.5 µM HsCRM1 (wild type or mutant) in 200 µL"}, "[6]": {"target": "T3, human CRM1 mutant HsCRM1(K568A) (human, UniProt O14980 1-1071, K568A)", "T3 construct": "human CRM1 / Exportin-1 (XPO1) with K568A; Used together with RanGTP", "T3 sequence (O14980 whole entry K568A)": "as the sequence (O14980 whole entry K568M) above, with M568A counted along it", "experiment": "pull-down; ~5 µg immobilized GST-NESs, 7.5 µM ScRanGTP and 2.5 µM HsCRM1 (wild type or mutant) in 200 µL"}, "[7]": {"target": "T2, human CRM1 mutant HsCRM1(K568M)", "experiment": "pull-down; ~5 µg immobilized GST-NESs, 500 nM HsCRM1 (wild type or mutant) and 1.5 µM ScRanGTP in 1 mL"}, "[8]": {"target": "T3, human CRM1 mutant HsCRM1(K568A)", "experiment": "pull-down; ~5 µg immobilized GST-NESs, 500 nM HsCRM1 (wild type or mutant) and 1.5 µM ScRanGTP in 1 mL"}, "[9]": {"target": "T1, human CRM1 (HsCRM1), wild type", "experiment": "pull-down; ~5 µg immobilized GST-NESs, 500 nM HsCRM1 (wild type or mutant) and 1.5 µM ScRanGTP in 1 mL"}}}
{"binder": "B1", "values": [{"measurement": "binding result", "setting": "[1]", "value": "binds"}]}
{"binder": "B2", "values": [{"measurement": "binding result", "setting": "[2]", "value": "binds"}]}
{"binder": "B3", "values": [{"measurement": "binding result", "setting": "[3]", "value": "binds"}]}
{"binder": "B4", "values": [{"measurement": "binding result", "setting": "[4]", "value": "binds"}]}
{"binder": "B5", "values": [{"measurement": "binding result", "setting": "[5]", "value": "binds"}, {"measurement": "binding result", "setting": "[6]", "value": "binds"}]}
{"binder": "B6", "values": [{"measurement": "binding result", "setting": "[7]", "value": "binds"}, {"measurement": "binding result", "setting": "[8]", "value": "binds"}, {"measurement": "binding result", "setting": "[9]", "value": "binds"}]}
{"binder": "B7", "values": [{"measurement": "binding result", "setting": "[6]", "value": "binds"}]}
{"binder": "B8", "values": [{"measurement": "binding result", "setting": "[3]", "value": "binds"}]}
{"binder": "B9", "values": [{"measurement": "binding result", "setting": "[3]", "value": "binds"}]}
{"binder": "B10", "values": [{"measurement": "binding result", "setting": "[3]", "value": "binds"}]}
{"binder": "B11", "values": [{"measurement": "binding result", "setting": "[2]", "value": "binds"}]}
{"binder": "B12", "values": [{"measurement": "binding result", "setting": "[1]", "value": "binds"}]}
{"binder": "B13", "values": [{"measurement": "binding result", "setting": "[3]", "value": "binds"}]}
{"binder": "B14", "values": [{"measurement": "Kd", "setting": "[2]", "value": 1.7, "unit": "µM"}]}
{"binder": "B15", "values": [{"measurement": "binding result", "setting": "[3]", "value": "binds"}]}
{"binder": "B16", "values": [{"measurement": "binding result", "setting": "[2]", "value": "binds"}]}
{"binder": "B17", "values": [{"measurement": "binding result", "setting": "[3]", "value": "binds"}]}
{"binder": "B18", "values": [{"measurement": "binding result", "setting": "[2]", "value": "binds"}]}
{"binder": "B19", "values": [{"measurement": "binding result", "setting": "[2]", "value": "binds"}]}
{"binder": "B20", "values": [{"measurement": "binding result", "setting": "[2]", "value": "binds"}]}
{"binder": "NSNELALKLAGLDANKT", "note": "[PKI NES(Φ4A) mutant (MBP fusion)]", "values": [{"measurement": "Kd", "setting": "[2]", "value": 150, "unit": "µM"}]}
